Publication PMC9020658, “Mechanism of RNA polymerase I selection by transcription factor UAF”

What was measured:
[1] = target: T1, UAF (Rrn5-Rrn9-Rrn10-Uaf30-H3-H4) (Saccharomyces cerevisiae? (budding …, UniProt Q02983;P53437;P38204;Q08747;P61830;P02309 1-363;1-365;1-145;1-228;1-136;1-103)); experiment: filter binding; fitted Kd only in figure; legend order of the DNAs appears swapped; 30 mM Hepes-NaOH pH 7.5, 30 mM sodium citrate pH 6.0, 250 mM KCl, 2 mM DTT; filter binding 1 h at 4 C; footprinting on ice, then 2.5 mM MgCl2, 0.5 mM CaCl2, DNa
[2] = target: T1, UAF (Rrn5-Rrn9-Rrn10-Uaf30-H3-H4); experiment: filter binding; two repeats; text assigns tight Kd to -110/-40, fig. S7 legend order of the DNAs appears swapped; 30 mM Hepes-NaOH pH 7.5, 30 mM sodium citrate pH 6.0, 250 mM KCl, 2 mM DTT; filter binding 1 h at 4 C; footprinting on ice, then 2.5 mM MgCl2, 0.5 mM CaCl2, DNa

| Binder | fold decrease in affinity [1] | Kd [2] |
| --- | --- | --- |
| DNA-180/-110 (upstream) (dsDNA) DNA 1: ATATACGCTAAGATTTTTGGAGAATAGCTTAAATTGAAGTTTTTCTCGGCGAGAAATACGTAGTTAAGGCA DNA 2: TGCCTTAACTACGTATTTCTCGCCGAGAAAAACTTCAATTTAAGCTATTCTCCAAAAATCTTAGCGTATAT | ~5 fold lower affinity than DNA-110/-40 |  |
| DNA-110/-40 (downstream) (dsDNA) DNA 1: AGAGCGACAGAGAGGGCAAAAGAAAATAAAAGTAAGATTTTAGTTTGTAATGGGAGGGGGGGTTTAGTCAT DNA 2: ATGACTAAACCCCCCCTCCCATTACAAACTAAAATCTTACTTTTATTTTCTTTTGCCCTCTCTGTCGCTCT |  | 20.4 nM |
